# Measurements reported in US20240309087A1 (SHANGHAI JUNSHI BIOSCIENCES, published 2024).
# Where two headings read alike, the source gives them in different places.
# T1: human CD112R on Jurkat CD112R effector cells (human, UniProt Q6DKI7 1-326)
# T1 sequence (looked up): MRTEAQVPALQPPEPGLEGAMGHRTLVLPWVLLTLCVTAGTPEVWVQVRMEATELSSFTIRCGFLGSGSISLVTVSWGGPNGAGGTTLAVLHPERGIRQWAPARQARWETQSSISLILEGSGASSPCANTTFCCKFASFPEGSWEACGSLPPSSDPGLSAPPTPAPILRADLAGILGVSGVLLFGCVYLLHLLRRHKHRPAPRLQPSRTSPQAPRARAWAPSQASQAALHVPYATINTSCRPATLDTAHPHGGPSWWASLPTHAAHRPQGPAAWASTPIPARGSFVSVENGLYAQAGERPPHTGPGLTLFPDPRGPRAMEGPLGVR
# T2: hCD112R mFC recombinant protein (human; murine, UniProt Q6DKI7 41-160)
# T2 construct: range 41-160; expressed in 293E cells; also called hCD112R ECD mFC; hCD112R-ECD-mFC; not shown: murine IgG2a Fc domain (MX2-mFc vector)
# T2 sequence (looked up): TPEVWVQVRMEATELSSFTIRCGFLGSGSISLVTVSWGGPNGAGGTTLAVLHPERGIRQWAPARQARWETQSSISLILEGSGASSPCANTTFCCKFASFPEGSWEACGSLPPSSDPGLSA
# T3: recombinant cynomolgus monkey CD112R antigen (cynomolgus monkey, UniProt A0A2K5WVV8 1-322)
# T3 construct: bought
# T3 sequence: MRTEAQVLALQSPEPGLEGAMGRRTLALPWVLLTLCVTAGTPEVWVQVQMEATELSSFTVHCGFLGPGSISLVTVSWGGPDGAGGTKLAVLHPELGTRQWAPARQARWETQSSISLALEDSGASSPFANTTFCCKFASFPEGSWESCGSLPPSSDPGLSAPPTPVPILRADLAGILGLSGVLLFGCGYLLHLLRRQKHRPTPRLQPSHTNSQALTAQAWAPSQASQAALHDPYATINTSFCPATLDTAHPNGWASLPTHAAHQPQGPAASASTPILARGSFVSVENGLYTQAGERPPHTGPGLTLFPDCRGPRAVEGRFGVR
# B1: 2G10.1 (antibody, V domains shown)
# VH: QVQLQQSGAELVKPGASVKLSCKASGYTFTSHYMYWLKQRPGQGLEWIGEINPSNGDTKFNEKFKSKATLTVDKSSSTAYMQLSSLTSEDSAVYYCTREKDAFSALDYWGQGTSVTDSS
# VL: DIQMIQSPSSMFASLGDRVSLSCRASQGIRGHLDWYQQKPGGTIKLLIYSTSILNFGVPSRFSGSGSGSDYSLTISSLESEDFADYYCLQRNAYPLTFGAGTKLELK
# notes: murine hybridoma antibody
# B2: Hu16 (antibody, human IgG4 S228P, kappa)
# heavy: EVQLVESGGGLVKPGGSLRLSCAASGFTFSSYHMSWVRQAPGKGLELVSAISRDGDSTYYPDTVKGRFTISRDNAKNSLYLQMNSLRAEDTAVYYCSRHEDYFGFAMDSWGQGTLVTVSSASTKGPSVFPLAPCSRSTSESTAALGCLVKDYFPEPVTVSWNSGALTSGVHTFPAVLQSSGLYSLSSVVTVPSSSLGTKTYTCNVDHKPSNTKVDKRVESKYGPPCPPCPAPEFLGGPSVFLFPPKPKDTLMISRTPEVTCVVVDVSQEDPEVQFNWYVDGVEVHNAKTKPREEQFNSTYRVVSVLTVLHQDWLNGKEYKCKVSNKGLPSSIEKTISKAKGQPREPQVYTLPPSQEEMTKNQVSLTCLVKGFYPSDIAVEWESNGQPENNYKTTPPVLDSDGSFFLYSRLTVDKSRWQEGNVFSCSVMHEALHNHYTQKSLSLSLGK
# light: DIVMTQSPDSLAVSLGERATINCKASQSVSNDVAWYQQKPGQPPKLLIYYVSHRFTGVPDRFSGSGSGTDFTLTISSLQAEDVAVYFCHQAYRSPWTFGQGTKLEIKRTVAAPSVFIFPPSDEQLKSGTASVVCLLNNFYPREAKVQWKVDNALQSGNSQESVTEQDSKDSTYSLSSTLTLSKADYEKHKVYACEVTHQGLSSPVTKSFNRGEC
# notes: humanized; 5C10VH1 + 6A10VL2
# B3: Hu52 (antibody, human IgG4 S228P, kappa)
# heavy: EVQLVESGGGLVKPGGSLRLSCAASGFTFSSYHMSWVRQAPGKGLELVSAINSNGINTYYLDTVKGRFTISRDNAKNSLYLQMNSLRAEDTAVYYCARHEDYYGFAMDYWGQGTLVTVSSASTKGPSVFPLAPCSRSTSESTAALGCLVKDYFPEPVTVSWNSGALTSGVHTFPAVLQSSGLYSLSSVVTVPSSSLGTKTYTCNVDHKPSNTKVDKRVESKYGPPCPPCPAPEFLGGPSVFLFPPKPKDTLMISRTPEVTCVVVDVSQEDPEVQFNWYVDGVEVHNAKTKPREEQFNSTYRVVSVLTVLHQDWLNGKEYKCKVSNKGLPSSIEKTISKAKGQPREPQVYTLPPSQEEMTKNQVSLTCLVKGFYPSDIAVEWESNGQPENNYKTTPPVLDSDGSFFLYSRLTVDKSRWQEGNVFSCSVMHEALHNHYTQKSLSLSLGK
# light: B2 light
# notes: humanized; 7C2VH1 + 6A10VL2
# B4: Hu59 (antibody, human IgG4 S228P, kappa)
# heavy: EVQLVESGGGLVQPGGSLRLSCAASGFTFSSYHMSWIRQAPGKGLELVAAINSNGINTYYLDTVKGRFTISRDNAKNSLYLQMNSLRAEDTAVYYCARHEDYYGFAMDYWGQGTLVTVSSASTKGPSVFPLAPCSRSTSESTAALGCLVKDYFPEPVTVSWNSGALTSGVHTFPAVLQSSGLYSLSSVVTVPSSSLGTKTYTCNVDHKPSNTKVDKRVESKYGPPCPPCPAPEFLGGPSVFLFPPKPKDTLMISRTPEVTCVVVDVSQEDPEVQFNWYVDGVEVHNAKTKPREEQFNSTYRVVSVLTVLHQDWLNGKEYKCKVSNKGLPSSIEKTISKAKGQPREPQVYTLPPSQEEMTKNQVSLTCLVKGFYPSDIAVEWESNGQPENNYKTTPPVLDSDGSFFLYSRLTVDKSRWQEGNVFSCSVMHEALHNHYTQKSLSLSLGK
# light: DIQMTQSPSSLSASVGDRVTITCKASQSVSNDVAWYQQKPGKAPKLLIYYVSNRFTGVPSRFSGSGSGTDFTLTISSLQPEDFATYFCQQAYRSPWTFGQGTKLEIKRTVAAPSVFIFPPSDEQLKSGTASVVCLLNNFYPREAKVQWKVDNALQSGNSQESVTEQDSKDSTYSLSSTLTLSKADYEKHKVYACEVTHQGLSSPVTKSFNRGEC
# notes: humanized; 7C2VH2 + 7C2VL1
# B5: 5C10.1 (antibody, V domains shown)
# VH: DVKLVESGGGLVKLGGSLKLSCAASGFTFSSYHMSWVRQTPEKRLELVAAISRDGDSTYYPDTVKGRFTISRDDAENTLYLQMSSLKSEDTALYYCSRHEDYFGFAMDSWGQGTSVTVSS
# VL: SIVMTQTPKFLLVSAGDRVTITCKASQSVTNDVAWYQQKPGQSPKLLMYYVSNHYTGVPDRFIGSGYGTDFTFTISTVQAEDLAVYFCQQAYRSPWTFGGGTKLEIK
# B6: 3D2.1 (antibody, V domains shown)
# VH: DVQLVESGGGLVKLGGSLKLSCVASGFTFSSYHMSWIRQTPEKRLELVAAINSNDINTYYLDTVKGRFTISRDIAKNTLHLQMSSLKSEDTALYYCARHEDYYGFAMDYWGQGTSVTVSS
# VL: DIQLTQSPASLSVSVGETVTITCRVSANIYSNLVWYHQRQGKSPQLLVYGGTNLADGVPSRFSGSGSGTQFSLKINSLQSEDFGSYHCQHFWSTPYTFGGGTKLEIK
# B7: 4E5.1 (antibody, V domains shown)
# VH: EVMLVESGGGLVKPGGSLKLSCAASGFTFSNYIMSWVRQTPDMRLEWVATISSGGSSTYYVDRVKGGFPFSRDSVKYILYVHTSSLRSADTAIYYCAKHEDWDPLYYYSMDYWGQGTSVTVSS
# VL: QIVLTQSPTVMSASPGDKVTMTCSASSSVSYMYWFQQKPGSSPRLLIYDTSHLAFGVPSRFSGSRSGTSYSLTISRMEAEDTATYYCQQWTTYPLTFGAGTKLELK
# notes: murine hybridoma antibody
# B8: COM701 (antibody, V domains shown)
# VH: QVQLVQSGAEVKKPGASVKVSCKASGYTFTDYNINWVRQAPGQGLEWMGYIYPYIGGSGYAQKFQGRVTMTRDTSTSTVYMELSSLRSEDTAVYYCAREDKTARNAMDYWGQGTLVTVSS
# VL: DIQMTQSPSSLSASVGDRVTITCRVSENIYSNLAWYQQKPGKAPKLLIYEATNLAEGVPSRFSGSGSGTDFTLTISSLQPEDFATYYCQHFWGTPYTFGQGTKLEIK
# Key:
# [1] = target: T1, human CD112R on Jurkat CD112R effector …; assay: cell-based or functional assay
# [2] = target: T2, hCD112R mFC recombinant protein; assay: FACS competition, hCD112R mFc on CHO CD112 cells
# Experimental: Unbound antibodies were then washed with a staining buffer and the cells were incubated with 1% (v/v) goat anti-mouse IgG Fc fluorescent secondary antibodies (Jackson ImmunoResearch) prepared in a staining buffer at 4° C. for 30 min in the dark. Finally, the cells were collected by using a flow cytometer, and the fluorescent antibodies bound to the cell surface were detected. Raw data were analyzed by using FlowJo to obtain MFI values, and a four-parameter curve fitting was performed by using GraphPad Prism software to obtain IC₅₀ values.
# [3] = target: T2, hCD112R mFC recombinant protein; assay: Biacore T200, antibody captured, hCD112R mFc injected
# Experimental: Biacore T200 was used to assay the binding affinity of the anti-CD112R hybridoma antibodies for the recombinant hCD112R mFc protein. […] antibody fragments (Jackson ImmunoResearch) were coupled to the surface of a CM5 chip, and the anti-CD112R hybridoma antibodies were each captured by using the chip, after which recombinant hCD112R mFc proteins at different concentrations were injected into the CM5 chip.
# [4] = target: T1, human CD112R on Jurkat CD112R effector …; assay: cell-based or functional assay; remark: listed apart in the source
# [5] = target: T2, hCD112R mFC recombinant protein; assay: ELISA, coated hCD112R-ECD-mFC
# Outline: (§1)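 Plates coated with hCD112R-ECD-mFC at 1.5 μg/mL; humanized antibodies titrated from 1 μg/mL, 2.5-fold, 12 points. Bound antibody detected with HRP anti-human IgG Fc and TMB, read at 420/620 nm; EC50 from 4PL fit, COM701 and anti-KLH hu-IgG4 as controls.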
# [6] = target: T3, recombinant cynomolgus monkey CD112R …; assay: ELISA, coated cynomolgus monkey CD112R
# Experimental: (§2) Plates were coated with a recombinant cynomolgus monkey CD112R antigen (purchased from Acrobiosystems, Cat No. PVG-C5259) and a mouse CD112R antigen (purchased from Acrobiosystems, Cat No. PVG-M5257) at fixed concentrations, respectively, and the humanized anti-CD112R antibodies diluted in a gradient (initial concentration: 1 μg/mL, 2.5-fold gradient dilution, 12 concentration gradients in total) were added to bind to the antigens, HRP-conjugated mouse anti-human IgG4 Fc (Southern Biotech. 9200-05) was subjected to a 5000-fold dilution and used as detection antibody for detection. The color development was performed with 0.1 mg/mL TMB, and finally stopped with 2 M hydrochloric acid. The plates were read at 420 nm/620 nm. EC₅₀ was obtained by fitting with a four-parameter logistic regression (4PL) model.
# [7] = target: T2, hCD112R mFC recombinant protein; assay: FACS competition, hCD112R mFc on CHO CD112 cells; remark: listed apart in the source
# Outline: (§3)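 CHO cells overexpressing human CD112 were co-incubated 30 min at 4 °C with hCD112R mFc (5 μg/mL) and humanized anti-CD112R antibodies (from 100 μg/mL, 3-fold, 10 points). Bound fusion protein detected with anti-mouse IgG Fc secondary by flow cytometry; IC50 from four-parameter fit of MFI. COM701 served as positive control, anti-KLH hu-IgG4 as negative.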
# [8] = target: T2, hCD112R mFC recombinant protein; assay: ELISA, coated hCD112R-ECD-mFC; EC50 COM701/EC50 antibody
# Outline: as §1
# [9] = target: T2, hCD112R mFC recombinant protein; assay: FACS competition, hCD112R mFc on CHO CD112 cells; IC50 COM701/IC50 antibody
# Outline: as §3
# [10] = target: T4, mouse CD112R antigen (mouse); assay: ELISA on coated mouse CD112R, OD 450 nm, ambiguous fit of a nearly flat curve; unit from the axis
# T4 construct: bought
# Experimental: as §2, with “The plates were read at 420 nm/620 nm.” left out
# [11] = target: T4, mouse CD112R antigen; assay: ELISA on coated mouse CD112R, OD 450 nm, fit of a nearly flat curve; unit from the axis
# Experimental: as §2, with “The plates were read at 420 nm/620 nm.” left out
# [12] = target: T3, recombinant cynomolgus monkey CD112R …; assay: ELISA on coated recombinant cynomolgus monkey CD112R, OD 450 nm, 4PL fit; unit from the axis
"EC50, CD112R/CD112 NFAT-luciferase reporter [1]","EC50, CD112R/CD112 reporter [4]","Relative activity (%), EC50 COM701/EC50 antibody [4]",EC50 [5],EC50 [6],IC50 [7],Relative activity (%) [8],Relative activity (%) [9],EC50 [10],also measured,Binder
0.0729 µg/mL,,,,,,,,,IC50 [2]: 0.261 µg/mL; Kd [3]: 0.0302 nM,B1
,0.0196 µg/mL,253%,0.00426 µg/mL,0.00292 µg/mL,2.5 µg/mL,126%,143%,~683 µg/mL,,B2
,0.018 µg/mL,415%,0.00568 µg/mL,0.00309 µg/mL,2.52 µg/mL,161%,95.5%,,EC50 [11]: 1870 µg/mL,B3
,0.0188 µg/mL,312%,0.00496 µg/mL,0.00262 µg/mL,3.17 µg/mL,169%,76%,~1970 µg/mL,,B4
0.0404 µg/mL,,,,,,,,,,B5
0.0493 µg/mL,,,,,,,,,,B6
0.0552 µg/mL,,,,,,,,,IC50 [2]: 0.111 µg/mL; Kd [3]: 0.00926 nM,B7
,,,,,,,,~1.06 µg/mL,EC50 [12]: 0.00428 µg/mL,B8
